Measurements reported in the supplement of paper PMC7125110.
± gives the standard error. This sample holds only a part of the variants without activity.

B1: glmS ribozyme (parent)
chain: AUAAAAGCGCCAGAACUACAGAAAUGUAGUUGACGAGGAGGAGGUUUAUCGAAUUUUCGGCGGAUGCCUCCAAA

Legend:
Conditions in all cases: with glucosamine-6-phosphate
[1] = variants of: B1; test: self-cleavage kobs at 40 uM GlcN6P; higher = faster cleavage; RNA array
How it was run: (§1)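 Glucosamine-6-phosphate in HEPES/KCl/Mg(OAc)2 buffer, at 40 μM to 10 mM, was flowed over barcoded ribozyme variants transcribed in situ by E. coli RNA polymerase on sequenced MiSeq chips. Tracking was through a hybridised Cy3 probe at 37 °C. kobs, kcat and KM came from exponential decay fits and weighted Michaelis–Menten fits of normalised per-tile medians.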

[2] = variants of: B1; test: self-cleavage kobs at 160 uM GlcN6P; higher = faster cleavage; RNA array
How it was run: as §1

[3] = variants of: B1; test: self-cleavage kobs at 640 uM GlcN6P; higher = faster cleavage; RNA array
How it was run: as §1

[4] = variants of: B1; test: self-cleavage kobs at 10000 uM GlcN6P; higher = faster cleavage; RNA array
How it was run: as §1

[5] = variants of: B1; test: self-cleavage kobs at 2500 uM GlcN6P; higher = faster cleavage; RNA array
How it was run: as §1

Variant	self-cleavage kobs at 40 uM GlcN6P [1]	self-cleavage kobs at 160 uM GlcN6P [2]	self-cleavage kobs at 640 uM GlcN6P [3]	self-cleavage kobs at 10000 uM GlcN6P [4]	self-cleavage kobs at 2500 uM GlcN6P [5]
A39U G60U	< 1e-05 s⁻¹	< 1e-05 s⁻¹	< 1e-05 s⁻¹	< 1e-05 s⁻¹	
G7U G43A	< 1e-05 s⁻¹	< 1e-05 s⁻¹	< 1e-05 s⁻¹	< 1e-05 s⁻¹	< 1e-05 s⁻¹
U31C G44U	< 1e-05 s⁻¹	< 1e-05 s⁻¹		2.15e-05 ± 1e-05 s⁻¹	
A6U A36U C70U	< 1e-05 s⁻¹				
G7U G35C U57A	< 1e-05 s⁻¹				< 1e-05 s⁻¹
A12U G13A U31A G38A G40A	< 1e-05 s⁻¹			< 1e-05 s⁻¹	
A6G G44C	< 1e-05 s⁻¹	< 1e-05 s⁻¹	< 1e-05 s⁻¹	< 1e-05 s⁻¹	< 1e-05 s⁻¹
C10U C68A C71U	< 1e-05 s⁻¹				
U31G C61U C67U	< 1e-05 s⁻¹		< 1e-05 s⁻¹		
A14C U56G	0.00282 ± 0.00046 s⁻¹	0.00922 ± 0.003 s⁻¹	0.0201 ± 0.0065 s⁻¹	0.0693 ± 0.022 s⁻¹	0.00838 ± 0.0029 s⁻¹
C16U U45A	0.00211 ± 0.00039 s⁻¹		0.0159 ± 0.003 s⁻¹	0.0689 ± 0.015 s⁻¹	0.0183 ± 0.0057 s⁻¹
U30C G59A C68U	< 1e-05 s⁻¹			< 1e-05 s⁻¹	
C8U A36C G41C	< 1e-05 s⁻¹				
U45C C61U	< 1e-05 s⁻¹	< 1e-05 s⁻¹	< 1e-05 s⁻¹	< 1e-05 s⁻¹	
U45C C58U	< 1e-05 s⁻¹	< 1e-05 s⁻¹	< 1e-05 s⁻¹		< 1e-05 s⁻¹
U31C A39U C68A	< 1e-05 s⁻¹		< 1e-05 s⁻¹		
U46C G60C	< 1e-05 s⁻¹	< 1e-05 s⁻¹	< 1e-05 s⁻¹	< 1e-05 s⁻¹	< 1e-05 s⁻¹
G7A G59A	< 1e-05 s⁻¹	< 1e-05 s⁻¹	< 1e-05 s⁻¹	< 1e-05 s⁻¹	< 1e-05 s⁻¹
G32U G38C	< 1e-05 s⁻¹				
C11G U57A	< 1e-05 s⁻¹	< 1e-05 s⁻¹	< 1e-05 s⁻¹		
C68A C70A	< 1e-05 s⁻¹				
A15U G29U C71G	6.19e-05 ± 2.4e-05 s⁻¹			0.000144 ± 2.7e-05 s⁻¹	
A6U G13C U69C	< 1e-05 s⁻¹			< 1e-05 s⁻¹	
C61U A64U	< 1e-05 s⁻¹	< 1e-05 s⁻¹	< 1e-05 s⁻¹	< 1e-05 s⁻¹	< 1e-05 s⁻¹

Variant	self-cleavage kobs at 40 uM GlcN6P [1]	self-cleavage kobs at 160 uM GlcN6P [2]	self-cleavage kobs at 640 uM GlcN6P [3]	self-cleavage kobs at 10000 uM GlcN6P [4]	self-cleavage kobs at 2500 uM GlcN6P [5]
G13A C67A C71A	< 1e-05 s⁻¹				
G35C G41A	< 1e-05 s⁻¹	< 1e-05 s⁻¹	< 1e-05 s⁻¹	< 1e-05 s⁻¹	< 1e-05 s⁻¹
A39C C50U A64G	< 1e-05 s⁻¹				
G13U G60C	< 1e-05 s⁻¹			< 1e-05 s⁻¹	
A14G C50U G66U C68A	5.56e-05 ± 2.7e-05 s⁻¹			4.35e-05 ± 1.8e-05 s⁻¹	
A14U A39C U49A	< 1e-05 s⁻¹				
G29A A48G U49G G62C	< 1e-05 s⁻¹	< 1e-05 s⁻¹			< 1e-05 s⁻¹
A14U C50G C58U	0.000443 ± 0.00014 s⁻¹			3.69e-05 ± 1.8e-05 s⁻¹	
C50G C68G	0.00159 ± 0.00078 s⁻¹		0.000121 ± 1.1e-05 s⁻¹	6.8e-05 ± 4.8e-06 s⁻¹	0.000142 ± 1.2e-05 s⁻¹
U57G G63U	< 1e-05 s⁻¹	< 1e-05 s⁻¹		< 1e-05 s⁻¹	< 1e-05 s⁻¹
C10U G60C	< 1e-05 s⁻¹	< 1e-05 s⁻¹	< 1e-05 s⁻¹	< 1e-05 s⁻¹	< 1e-05 s⁻¹
U31C G41U C70G	0.000329 ± 7e-05 s⁻¹			0.00237 ± 0.00061 s⁻¹	
A14C A64G U65A C70A C71G	< 1e-05 s⁻¹			< 1e-05 s⁻¹	
C50A G63U	< 1e-05 s⁻¹	< 1e-05 s⁻¹	< 1e-05 s⁻¹	< 1e-05 s⁻¹	
A53C U57C C67G	< 1e-05 s⁻¹			< 1e-05 s⁻¹	
C11A A14C G63C U69C	< 1e-05 s⁻¹				
G41A U56A	4.59e-05 ± 9.3e-06 s⁻¹	8.06e-05 ± 1.3e-05 s⁻¹	0.000252 ± 2.8e-05 s⁻¹	0.00063 ± 8.8e-05 s⁻¹	0.00173 ± 0.00036 s⁻¹
A33C C34A	< 1e-05 s⁻¹	< 1e-05 s⁻¹	< 1e-05 s⁻¹	< 1e-05 s⁻¹	< 1e-05 s⁻¹
G44A C50G U55A	< 1e-05 s⁻¹		< 1e-05 s⁻¹		< 1e-05 s⁻¹
G44C G60A U69G	< 1e-05 s⁻¹				
A33C C67G	< 1e-05 s⁻¹	< 1e-05 s⁻¹		< 1e-05 s⁻¹	
A33U G41A C50A A53C G60C	< 1e-05 s⁻¹			< 1e-05 s⁻¹	
A36U A42U C68U	< 1e-05 s⁻¹				
U30C G41A A42C C50G	< 1e-05 s⁻¹			< 1e-05 s⁻¹	

Variant	self-cleavage kobs at 40 uM GlcN6P [1]	self-cleavage kobs at 160 uM GlcN6P [2]	self-cleavage kobs at 640 uM GlcN6P [3]	self-cleavage kobs at 10000 uM GlcN6P [4]	self-cleavage kobs at 2500 uM GlcN6P [5]
A48C G51U C67U	< 1e-05 s⁻¹			< 1e-05 s⁻¹	
C10U A15C C34A A36G G43C U49C	< 1e-05 s⁻¹	< 1e-05 s⁻¹		< 1e-05 s⁻¹	< 1e-05 s⁻¹
C10U G44U	< 1e-05 s⁻¹		< 1e-05 s⁻¹	< 1e-05 s⁻¹	< 1e-05 s⁻¹
A6U G43A G59A G60U	< 1e-05 s⁻¹				
U30A A39U C67G C68G	0.000113 ± 2.1e-05 s⁻¹			8.62e-05 ± 1.7e-05 s⁻¹	
C11G G44C	< 1e-05 s⁻¹	< 1e-05 s⁻¹	< 1e-05 s⁻¹		< 1e-05 s⁻¹
A33C G63U G66U	< 1e-05 s⁻¹		< 1e-05 s⁻¹	< 1e-05 s⁻¹	
C16U A36U A64G	< 1e-05 s⁻¹				
G9A G63C	< 1e-05 s⁻¹			< 1e-05 s⁻¹	
G44U G66U U69G	< 1e-05 s⁻¹				
C34G G37C C61U U65A	< 1e-05 s⁻¹			< 1e-05 s⁻¹	
C8U G38U	< 1e-05 s⁻¹	< 1e-05 s⁻¹			< 1e-05 s⁻¹
C16A G38C	< 1e-05 s⁻¹	< 1e-05 s⁻¹	< 1e-05 s⁻¹	< 1e-05 s⁻¹	
G37A G59U C61U	< 1e-05 s⁻¹			< 1e-05 s⁻¹	
C8U C34U	< 1e-05 s⁻¹		< 1e-05 s⁻¹	< 1e-05 s⁻¹	
G35U G37C U56G	< 1e-05 s⁻¹		< 1e-05 s⁻¹		< 1e-05 s⁻¹
A39C A42C C68G	< 1e-05 s⁻¹				
G40C C67G C71U	< 1e-05 s⁻¹				
G38U A39U G60C C68A	< 1e-05 s⁻¹				< 1e-05 s⁻¹
C10U G37U	< 1e-05 s⁻¹		< 1e-05 s⁻¹	< 1e-05 s⁻¹	
C16A C50G	0.000251 ± 0.0001 s⁻¹	7.18e-05 ± 1.9e-05 s⁻¹	4.7e-05 ± 1.7e-05 s⁻¹	7.6e-05 ± 3.6e-05 s⁻¹	5.49e-05 ± 1.1e-05 s⁻¹
U56G C67U	0.000109 ± 1.2e-05 s⁻¹	0.000258 ± 4.6e-05 s⁻¹	0.00135 ± 0.00015 s⁻¹	0.00538 ± 0.00085 s⁻¹	0.00142 ± 0.00022 s⁻¹
A6U A36U	< 1e-05 s⁻¹	< 1e-05 s⁻¹	< 1e-05 s⁻¹	< 1e-05 s⁻¹	< 1e-05 s⁻¹
C34U U49A C58A U69A	0.000146 ± 5e-05 s⁻¹		0.000567 ± 0.00014 s⁻¹	4.63e-05 ± 2e-05 s⁻¹	

Variant	self-cleavage kobs at 40 uM GlcN6P [1]	self-cleavage kobs at 160 uM GlcN6P [2]	self-cleavage kobs at 640 uM GlcN6P [3]	self-cleavage kobs at 10000 uM GlcN6P [4]	self-cleavage kobs at 2500 uM GlcN6P [5]
C10U A33U G35A	< 1e-05 s⁻¹			< 1e-05 s⁻¹	
C8G U49A U54C G59U C67A	< 1e-05 s⁻¹	< 1e-05 s⁻¹	< 1e-05 s⁻¹	< 1e-05 s⁻¹	< 1e-05 s⁻¹
G38A A52G	< 1e-05 s⁻¹		< 1e-05 s⁻¹	< 1e-05 s⁻¹	< 1e-05 s⁻¹
A52C A64U	< 1e-05 s⁻¹	< 1e-05 s⁻¹	< 1e-05 s⁻¹	< 1e-05 s⁻¹	< 1e-05 s⁻¹
U30C A39U C68A	< 1e-05 s⁻¹			< 1e-05 s⁻¹	
A53U U65A	4.97e-05 ± 1.8e-05 s⁻¹	7.52e-05 ± 2.1e-05 s⁻¹		0.00253 ± 0.00061 s⁻¹	0.00238 ± 0.00058 s⁻¹
G40U G41C A48U	< 1e-05 s⁻¹				
A42G G62U C68U	< 1e-05 s⁻¹				
A6G A42G C50A U54C C70G	< 1e-05 s⁻¹	< 1e-05 s⁻¹	< 1e-05 s⁻¹	< 1e-05 s⁻¹	< 1e-05 s⁻¹
G7A U30A	< 1e-05 s⁻¹	< 1e-05 s⁻¹			< 1e-05 s⁻¹
G51U G60U	< 1e-05 s⁻¹	< 1e-05 s⁻¹	< 1e-05 s⁻¹	< 1e-05 s⁻¹	< 1e-05 s⁻¹
A14G U45A A48U	0.000108 ± 2.6e-05 s⁻¹			0.00563 ± 0.001 s⁻¹	
G7U G29A U30C C34U U45A	< 1e-05 s⁻¹				
G43U U54A	< 1e-05 s⁻¹			6.37e-05 ± 2e-05 s⁻¹	
G29C A64U	< 1e-05 s⁻¹	< 1e-05 s⁻¹			
G9U C34A	< 1e-05 s⁻¹	< 1e-05 s⁻¹	< 1e-05 s⁻¹	< 1e-05 s⁻¹	
G51C C67A	< 1e-05 s⁻¹	< 1e-05 s⁻¹	< 1e-05 s⁻¹		< 1e-05 s⁻¹
G13U C50G C67A	0.000194 ± 4.6e-05 s⁻¹	0.000278 ± 4.6e-05 s⁻¹		0.000101 ± 2.5e-05 s⁻¹	0.000138 ± 2.2e-05 s⁻¹
A15G U56G	0.000419 ± 4.9e-05 s⁻¹	0.000989 ± 0.00014 s⁻¹	0.00325 ± 0.00045 s⁻¹	0.0296 ± 0.0053 s⁻¹	0.00559 ± 0.00073 s⁻¹
A12U G37A C61G C70A	< 1e-05 s⁻¹			< 1e-05 s⁻¹	
G37C C50U C70A	0.00229 ± 0.00095 s⁻¹				
